For experiment [1], the target named is human neurotensin receptor 1 (NTR1) prepared from CHO cells recombinantly expressing the human receptor (human) (UniProt P30989). As to the kind of experiment: radioligand displacement, 125I-(Tyr3-neurotensin) on human NTR1 from CHO cells.
Experiment [2] concerns the target NTR1 on HT29 or NTR1-expressing HEK293 cells (UniProt P30989). In words: cell-based or functional assay.

Chain of NTR1 on HT29 or NTR1-expressing HEK293 cells (P30989 whole entry): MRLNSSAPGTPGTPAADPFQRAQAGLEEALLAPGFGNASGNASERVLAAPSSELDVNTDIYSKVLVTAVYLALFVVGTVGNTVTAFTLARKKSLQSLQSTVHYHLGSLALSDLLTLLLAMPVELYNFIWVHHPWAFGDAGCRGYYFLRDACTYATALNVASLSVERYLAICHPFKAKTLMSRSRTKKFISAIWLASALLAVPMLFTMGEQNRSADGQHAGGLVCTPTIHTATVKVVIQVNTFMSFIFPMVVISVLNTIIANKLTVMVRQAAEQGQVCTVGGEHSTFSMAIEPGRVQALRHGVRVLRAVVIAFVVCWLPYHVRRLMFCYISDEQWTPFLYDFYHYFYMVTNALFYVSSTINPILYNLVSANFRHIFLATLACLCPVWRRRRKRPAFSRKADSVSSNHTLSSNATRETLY
Chain of human neurotensin receptor 1 (NTR1) prepared from CHO cells recombinantly expressing the human receptor (human) (P30989 whole entry): as above

By IC50 is commonly meant the concentration at which inhibition is half-maximal. With “1206-Glutar-Ttds3-Asn-Ala-Val-Pro-Asn-Leu-Arg-Gly-Asp-Leu-Gln-Val-Leu-Ala-Gln-Lys-Val-Ala-Arg-Thr-GA (peptide)”, the IC50 in experiment [1] was determined as 0.0099 µM. For the same substance, in experiment [2], the Agonistic Effect EC50 [nM] (functional Ca2+ mobilisation assay) was over 50000 nM and the Antagonistic Effect IC50 [nM] (functional Ca2+ mobilisation assay) turned out to be 38 nM.

As for “1206-Glutar-Ttds-Lys(1206-Glutar-Ttds)-Ttds-Asn-Ala-Val-Pro-Asn-Leu-Arg-Gly-Asp-Leu-Gln-Val-Leu-Ala- (peptide)”, in experiment [1], the IC50 worked out at 0.0075 µM. In experiment [2], the Agonistic Effect EC50 [nM] (functional Ca2+ mobilisation assay) was over 50000 nM and the Antagonistic Effect IC50 [nM] (functional Ca2+ mobilisation assay) came to 12 nM.

Consider “1206-Glutar-Ttds-Lys(DOTA)-Ttds-GABA-Asn-Ala-Val-Pro-Asn-Leu-Arg-Gly-Asp-Leu-Gln-Val-Leu-Ala-Gln-Lys (peptide)”, for which the 50% inhibitory concentration (IC50) in experiment [1] amounted to 0.01 µM. In experiment [2], this substance had an Agonistic Effect EC50 [nM] (functional Ca2+ mobilisation assay) of over 50000 nM and an Antagonistic Effect IC50 [nM] (functional Ca2+ mobilisation assay) of 18 nM.

Source of the values: patent EP2954934A1 (3B Pharmaceuticals GmbH, dated 2015).
